Results taken from patent US9657092B2, “S100A4 antibodies and therapeutic uses thereof” (LYKERA BIOMED SA, priority 2010, dated 2017).

Tests used:
[1] = test system: HUVECs migration induced by VEGF plus S100A4; assay: HUVECs Transwell migration assay; format: cell-based, human
Experimental: Twenty-four-well cell culture plates with light-opaque PET membrane filter inserts with 8 μm-pores (Transwell HTS FluoroBlok™ Multiwell Insert Systems from Becton Dickinson) were used to test the migratory activity. The upper and lower surfaces of the Transwell membranes were coated for 2 hours at 37° C. with 15 μg/mL of Type I Collagen (Upstate). Endothelial cells (5×10^4 HUVEC's) suspended in 100 μl of EBM in the absence of serum or other supplements were seeded, after the collagen coating, onto the upper side of each Transwell chamber and incubated for 4 hours at 37° C. Then, S100A4 (1 μM), alone or in combination with VEGF (3 ng/mL) in EBM were added to the lower compartment of the 24-well plates to test their chemotactic capacity. […] Other monoclonal antibody anti-S100A4 called 5H4 (Leitat Biomed Division) was used to compare the activity. After 24 hours at 37° C., cells that had migrated to the lower side of the transwell were incubated with 5 μM Calcein-AM (Calbiochem) for 25-30 minutes at 37° C. Migrated cells were counted under a light microscope at a magnification of ×10. Comparisons between groups were made using the two-tailed nonparametric Mann Whitney U test. Differences for which P value was less than 0.05 were considered statistically significant.

[2] = test system: MiaPACA-2 tumors; assay: MiaPACA-2 subcutaneous xenograft tumor development; format: in vivo, nude mice; details: MiaPACA-2, end of experiment (day 30)
Experimental: (§1) MiaPACA-2 human pancreatic adenocarcinoma cell line and HCT116 human colorectal adenocarcinoma cell line in exponential growth were harvested with trypsin-EDTA (0.05%/0.02%) (Invitrogen), washed, and examined for viability by trypan blue dye exclusion. Viability was greater than 95%. For primary tumor growth, cells (either 5×10^6 or 1×10^6 cells for MiaPACA-2 or HCT116 respectively in 0.1 mL DMEM high glucose) were subcutaneously injected into the flanks of nude mice. Tumor volumes between 65-160 mm^3 for MiaPACA-2 and volumes between 155-370 mm^3 for HCT116 were used to divide the mice into two groups of either ten mice each (MiaPACA-2) or seven mice each (HCT116), such that the mean tumor size was equal between groups (approximately 100 mm^3 for MiaPACA-2 or 220 mm^3 for HCT116). Tumor growth was followed by measuring tumor diameters with calipers and the tumor volume was calculated using an approximated formula for a prolate ellipsoid: volume=(D×d^2)/2 where D is the longest axis of the tumor and d the shortest. Mice were treated either with vehicle (PBS) or with the antibody, i.p. three times per week at 25 mg/Kg/100 μL of sterile PBS, starting the treatment at defined tumor volume (100 mm^3 and 220 mm^3). […]

[3] = test system: HCT116 tumors; assay: HCT116 subcutaneous xenograft tumor development; format: in vivo, nude mice; details: HCT116, end of experiment (day 21)
Experimental: as §1

[4] = test system: circulant S100A4 protein in plasma; assay: Plasma quantification of S100A4 by sandwich ELISA in xenograft tumor models; format: in vivo, athymic mice; details: MiaPACA-2 and HCT116 xenograft tumor model, end of experiment
Experimental: Plasma levels of S100A4 were quantified by sandwich ELISA method. […] After removing the coating, plates were washed twice with PBS and incubated 1 h at 37° C. in blocking buffer (PBS containing 1% of skimmed milk).
Plasma samples diluted 1:4 in dilution buffer (PBS-4% BSA) were applied to the wells (100 μl/well) and were incubated 2 h at 37° C. Plates were washed eight times with washing buffer (PBS-0.1% of Tween-20) and Rabbit polyclonal anti-S100A4 secondary antibody (Dako) at the appropriate dilution was applied to the wells (100 μl/well) and were incubated for 1 h at 37° C.
Plates were washed eight times with washing buffer and Goat anti-Rabbit-IgG-peroxidase conjugated (Sigma) at the appropriate dilution was added to each well (100 μl/well) and were incubated 1 h at 37° C. […] Absorbance was ridden at 450 nm.
Standard curve for basal plasma samples (animals without tumor), was obtained by serial dilutions of murine recombinant S100A4 in dilution buffer. Standard curve for final plasma samples (animals with tumor at the end of the experiment) was obtained by serial dilutions of human recombinant S100A4 in dilution buffer.

[5] = biological target: Human S100A4 (Homo sapiens, UniProt P26447); assay: ELISA specificity (reaction pattern of mAb); format: binding; set-up: the final full-length recombinant S100A4 protein has an additional Gly-Ser-His at the N-terminus; His tag (pET28a) (N); made in house; host or cells: E. coli Tuner (DE3); key to Reaction Pattern of mAb in ELISA, Human S100A4: ++++ positive reaction; − no reaction
Sequence of Human S100A4 (P26447 with tags, fused parts or gaps): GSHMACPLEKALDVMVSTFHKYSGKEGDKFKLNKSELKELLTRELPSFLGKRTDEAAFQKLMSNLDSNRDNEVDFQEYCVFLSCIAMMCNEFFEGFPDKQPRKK

[6] = VEGF 3 ng/mL plus S100A4 1 μM, 24 h

B1: 5C3: mouse monoclonal anti-S100A4 antibody, IgG1, from hybridoma ECACC 10022401; VL SEQ ID NO: 1, VH SEQ ID NO: 2 (antibody, V domains shown)
VH: EAQLQQSGAELVKPGASVKLSCTASGFNIQETYMHWVKQRPEQGLEWIGRIDPANGNTKDDPKFQGKASITVDTSSNTAYLQLSSLTSEDTAVYYCASSYAMDYWGQGTSVTVSS
VL: DVLMTQTPLSLPVSLGDQASISCRSSQSIVHSNGNTYLEWYLQKTGQSPELLIYKVSNRLSGVPDRFSGSGSGTDFTLKISRVEAEDLGVYYCFQGSHVPFTFGSGTKLEIK
modifications: VH region of the 5C3 monoclonal antibody; VL region of the 5C3 monoclonal antibody
- concentration that abolished the synergistic effect of VEGF plus S100A4 on HUVECs migration [1, 6]: 250 nM
- neutralizing activity on HUVECs migration induced by S100A4 [1, 6]: in vitro neutralizing activity
- migration induced by VEGF alone ([1]; VEGF alone): did not affect
- tumor weight compared with the control group [2]: statistically significant decrease
- tumor weight compared with the control group [3]: induced a decrease in tumor weight
- S100A4 protein levels in plasma of treated animals (unbound to 5C3) [4]: blocks the totality of circulant S100A4 protein in plasma
- Reaction Pattern of mAb in ELISA, Human S100A4 [5]: ++++
- reaction with human S100A4 by ELISA ([5]; purified protein): reacted
